Results published in patent US20200031947A1 (RINAT NEUROSCIENCE, published 2020).

Legend:
[1] = target: T1, mouse GITR (mGITR), soluble analyte (mouse, UniProt O35714 20-153, limits assumed); assay: SPR (Biacore T200), 37 C; purified antibody captured on anti-mouse Ig chip, mGITR as analyte (300 nM top, 3-fold series); 1:1 Langmuir fit
T1 construct: Soluble analyte in SPR; construct not described
T1 sequence (looked up): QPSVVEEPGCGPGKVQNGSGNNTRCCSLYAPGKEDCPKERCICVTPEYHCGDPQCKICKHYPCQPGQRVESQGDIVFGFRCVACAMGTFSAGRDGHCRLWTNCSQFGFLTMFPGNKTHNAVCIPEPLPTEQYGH
Procedure: (§1) The sensor chip preparation was performed at 25° C. with a running buffer of 10 mM HEPES, 150 mM NaCl, 0.05% (v/v) Tween-20, pH 7.4. An anti-mouse Fc sensor chip was made by activating all flow cells of a Biacore CM4 sensor chip with a 1:1 (v/v) mixture of 400 mM EDC and 100 mM NHS for 7 minutes, at a flow rate of 10 μL/min. An anti-mouse immunoglobulin reagent (Rabbit anti-mouse immunoglobulin antibodies from Biacore Mouse Antibody Capture Kit, GE Lifesciences Catalog # BR-1008-38) was diluted to 60 pg/mL in 10 mM Sodium Acetate pH 5.0 and injected on all flow cells for 7 minutes at 20 μL/min. All flow cells were blocked with 100 mM ethylenediamine in 150 mM Borate buffer pH 8.5 for 7 minutes at 10 μL/min.
The experiments were performed at 37° C. using a running buffer of 10 mM HEPES, 150 mM NaCl, 0.05% (v/v) Tween-20, pH 7.4, 1 mg/mL BSA.
Purified antibodies were captured at […] onto downstream flow cells (flow cells 2, 3 and 4) at a flow rate of 10 μL/min for 2 minutes. Different antibodies were captured on each flow cell. Flow cell 1 was used as a reference surface. Following capture of antibodies, analyte (buffer, or mGITR) was injected at 30 μL/min on all flow cells for two minutes. After the analyte injection, dissociation was monitored for 10 minutes followed by regeneration of all flow cells with one 3-minute injection of 10 mM Glycine pH 1.7. A 5-membered dilution series of mGITR was analyzed using this method, where the top concentration was 300 nM and the dilution factor was 3-fold. The 33 nM dilution was run in duplicate. Buffer cycles were collected for each captured antibody for double-referencing purposes (double-referencing as described in Myszka, J. Mol. Recognit. 12:279-284 (1999). The double-referenced sensorgrams were fit globally to a simple 1:1 Langmuir with mass transport binding model.

[2] = target: T2, cynomolgus GITR (cyGITR), soluble analyte (cynomolgus); assay: SPR (Biacore T200), 37 C; antibody captured on anti-human Fc chip, GITR as analyte; 1:1 Langmuir fit
T2 construct: Soluble analyte in SPR; construct not described; also called cGITR
Procedure: as §1, with “anti-human” for “anti-mouse”, “anti-human Fc” for “anti-mouse immunoglobulin”, “(Goat Anti-Human IgG Fc, SouthernBiotech” for “(Rabbit anti-mouse immunoglobulin antibodies from Biacore Mouse Antibody Capture Kit, GE Lifesciences”, “#2081-01)” for “# BR-1008-38)”, “[…]” for “60”, “4.5” for “5.0”
(§2) Antibodies were captured from undiluted supernatants onto downstream flow cells (flow cells 2, 3 and 4) at a flow rate of 10 μL/min for 2 minutes. Different antibodies were captured on each flow cell. Flow cell 1 was used as a reference surface. Following capture of antibodies, analyte (buffer, hGITR, or cyGITR) was injected at 30 μL/min on all flow cells for two minutes. After the analyte injection, dissociation was monitored for 10 minutes followed by regeneration of all flow cells with three 1-minute injections of 75 mM Phosphoric Acid. For each captured antibody, the following analyte injections were performed: buffer, 20 nM hGITR, 200 nM hGITR, 20 nM cyGITR and 200 nM cyGITR. Buffer cycles were collected for each captured antibody for double-referencing purposes (double-referencing as described in Myszka, J. Mol. Recognit. 12:279-284 (1999). The double-referenced sensorgrams were fit globally to a simple 1:1 Langmuir with mass transport binding model.

[3] = target: T3, human GITR (hGITR), soluble analyte (human, UniProt Q9Y5U5 26-162); assay: as above
T3 sequence: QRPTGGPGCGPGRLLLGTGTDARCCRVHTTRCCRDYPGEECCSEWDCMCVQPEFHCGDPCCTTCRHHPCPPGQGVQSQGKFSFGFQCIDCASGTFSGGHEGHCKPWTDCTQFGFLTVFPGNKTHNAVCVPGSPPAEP
Procedure: as §1, with “anti-human” for “anti-mouse”, “anti-human Fc” for “anti-mouse immunoglobulin”, “(Goat Anti-Human IgG Fc, SouthernBiotech” for “(Rabbit anti-mouse immunoglobulin antibodies from Biacore Mouse Antibody Capture Kit, GE Lifesciences”, “#2081-01)” for “# BR-1008-38)”, “[…]” for “60”, “4.5” for “5.0”
as §2

[4] = target: T4, human GITR on cells (human, UniProt Q9Y5U5 26-162); assay: cell-based or functional assay
T4 sequence: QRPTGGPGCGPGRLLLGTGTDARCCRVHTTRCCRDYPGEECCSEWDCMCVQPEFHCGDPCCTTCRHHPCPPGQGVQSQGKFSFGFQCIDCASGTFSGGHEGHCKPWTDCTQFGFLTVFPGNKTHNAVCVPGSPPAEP

[5] = target: T4, human GITR on cells; assay: flow cytometry on in vitro expanded human Tregs; unconjugated antibody detected with A647 goat anti-human Fc gamma F(ab')2; MFI on antibody positive cells
Procedure: Cultured Tregs would be tracked throughout expansion to check purity. Cells were re-suspended in FACS buffer, PBS with 2% FBS for analysis using fluorophore conjugated CD markers. FACS antibodies against GITR and other CD lymphocyte markers were prepared in FACS buffer at the appropriate concentration and incubated for 30 minutes at RT. Treg purity staining utilizes intracellular targets and were processed with Foxp3 fix/perm kit (Affymetrix/eBiosciense, San Diego, Calif.). Stained cells were resuspended in fresh FACS buffer and analyzed on a FACS analyzer LSRII or Fortessa (BD Biosciences, San Jose, Calif.). To generate kinetic and binding data unconjugated antibody was titrated from 10-0.001 ug/mL (1:10 in serial dilutions, triplicate wells per concentration) and incubated at 4c for 60 minutes with 1*10e5 expanded day 12 Tregs per well. Unbound antibody was washed from cells and an A647 labeled Fc gamma (Fcγ) Fragment Specific goat-anti-human affiniPure F(ab′)₂ IgG was used to detect bound antibody (Jackson ImmunoResearch Laboratories Inc, West Grove, Pa.). Analysis of stained cells completed with FlowJo (Treestar). Geometric mean of APC was used to calculate EC50 by log transforming the molar concentration and generating a non-linear fit curve in GraphPad Prism.

Binder	Kd [1] [nM]	koff [1] [s⁻¹]	kon [1] [M⁻¹ s⁻¹]	t1/2 [1] [min]	Kd [2] [nM]	koff [2] [s⁻¹]	kon [2] [M⁻¹ s⁻¹]	t1/2 [2] [min]	Kd [3] [nM]	koff [3] [s⁻¹]	kon [3] [M⁻¹ s⁻¹]	t1/2 [3] [min]	EC50 of macrophage-mediated cytotoxicity (ADCP) of a GITR+ T cell line [4] [nM]	EC50 (read off the curve) [5] [mg/L]
anti-mGITR r21B6 mIgG2a (antibody, V domains shown, also called m21B6 IgG2a) VH: EAQLVESGGGLVQPGRSLKLSCEASGFTFTKYGMAWVRQAPTKGLEWVASIINSGGNTYYRDSVKGRFTISRDNAKSTLYLQMDSLRSEDTATYYCATDYYDGSYHSDVVDAWGQGVLVTVSS VL: EIVLTQSPTTMAASPGEKVTITCRASSSLNYMHWFQQKSGTSPKPWIYDTSELASGVPDRFSGSGSGTSYSLTISSMEAEDAATYYCLQKNGYPLTFGSGTKLEIK	21	0.0065	310000	1.8	–	–	–	–	–	–	–	–	–	–
h3G7 R5 (antibody, V domains shown, Only variable domains are tied to this name) VH: QVQLVQSGAEVKKPGASVKVSCKASGYTFTGATMNWVRQAPGQGLEWMGLINPYTGGIRYNQKFKGRVTMTRDTSTSTVYMELSSLRSEDTAVYYCARIGGYYDSMDYWGQGTLVTVSS VL: DIQMTQSPSSLSASVGDRVTITCRASESVEPRGINFLNWYQQKPGKAPKLLIYAASQASKGVPSRFSGSGSGTDFTLTISSLQPEDFATYYCQQALELPWTFGGGTKVEIK	–	–	–	–	6.4	0.0038	600000	3	5	0.0045	900000	2.6	0.92	–
h3G7 LF (antibody, V domains shown, Whole IgG captured on an anti-human Fc chip) VH: QVQLVQSGAEVKKPGASVKVSCKASGYTFTGATMNWVRQAPGQGLEWMGLINPYTGGIRYNQKFKGRVTMTRDTSTSTVYMELSSLRSEDTAVYYCARIGGYYDTMDYWGQGTLVTVSS VL: DIQMTQSPSSLSASVGDRVTITCRASESVEPRGINFLNWYQQKPGKAPKLLIYAASQASKGVPSRFSGSGSGTDFTLTISSLQPEDFATYYCQQALELPWTFGGGTKVEIK	–	–	–	–	69	0.023	330000	0.51	22	0.015	690000	0.76	–	–
h3G7 N9 (antibody, IgG1, V domains shown) VH: QVQLVQSGAEVKKPGASVKVSCKASGYTFTGYTVSWVRQAPGQGLEWMGLINPYTGGIRYNQKFKGRVTMTRDTSTSTVYMELSSLRSEDTAVYYCARIGGYYDSMDYWGQGTLVTVSS VL: DIQMTQSPSSLSASVGDRVTITCRASESVQPRGINFLNWYQQKPGKAPKLLIYAASNPSKGVPSRFSGSGSGTDFTLTISSLQPEDFATYYCQQALELPWTFGGGTKVEIK	–	–	–	–	–	–	–	–	–	–	–	–	0.692	–
h3G7 AM (antibody, V domains shown, Whole IgG captured on an anti-human Fc chip) VH: QVQLVQSGAEVKKPGASVKVSCKASGYTFTGATMNWVRQAPGQGLEWMGLINPYNGGIRYNQKFKGRVTMTRDTSTSTVYMELSSLRSEDTAVYYCARIGGYYDSMDYWGQGTLVTVSS VL: DIQMTQSPSSLSASVGDRVTITCRASESVDPRGINFLNWYQQKPGKAPKLLIYAASNQAKGVPSRFSGSGSGTDFTLTISSLQPEDFATYYCQQALELPWTFGGGTKVEIK	–	–	–	–	13	0.0088	670000	1.3	17	0.019	1.1e+06	0.61	–	–
anti-mGITR r18H12 mIgG2a (antibody, V domains shown) VH: EVQLVESDGVLVQPGKSLTLSCAASGFTFSDYYMAWVRQAPTKGLEWVATISYDDITTFYRDSVKGRFTISRDTAKSTLYLQMDSLRSEDTATYYCTRGLQWPYVMDAWGQGALVTVSS VL: DIVMTQSPSSLAVSAGETVTINCKSSQSLLYSGNQKSYLAWYQQKPGQSPKLLIYWASPRQSGVPDRFIGSGSGTDFTLTISSVQAEDMATYYCQQYYDAPPTFGGGTKLEIK	2.2	0.00049	220000	24	–	–	–	–	–	–	–	–	–	–
h10H2 N14 (antibody, IgG1, V domains shown, also called R14; h10H2 R14) VH: QVQLVQSGAEVKKPGSSVKVSCKASGGTFSRYWIEWVRQAPGQGLEWMGEILPGSGVTFENEKFKGRVTITADESTSTAYMELSSLRSEDTAVYYCARKGRYYAMDYWGQGTSVTVSS VL: EIVLTQSPGTLSLSPGERATLSCRASQSIGTSIHWYQQKPGQAPRLLIYYASESVSGIPDRFSGSGSGTDFTLTISRLEPEDFAVYYCQQTYSWPATFGQGTKVEIK	–	–	–	–	–	–	–	–	–	–	–	–	2.01	~0.03
h10H2 HU (antibody, V domains shown, Whole IgG captured on an anti-human Fc chip) VH: QVQLVQSGAEVKKPGSSVKVSCKASGGTFSRYWIEWVRQAPGQGLEWMGEILPGSGVTNYNEKFKGRVTITADESTSTAYMELSSLRSEDTAVYYCARKGTYYAMDYWGQGTSVTVSS VL: EIVLTQSPGTLSLSPGERATLSCRASQSIGTSIHWYQQKPGQAPRLLIYYASESVSGIPDRFSGSGSGTDFTLTISRLEPEDFAVYYCQQTYSWPATFGQGTKVEIK	–	–	–	–	> 100	–	–	–	> 100	0.0563	–	0.21	–	–
h10H2 AM (antibody, V domains shown, Whole IgG captured on an anti-human Fc chip) VH: QVQLVQSGAEVKKPGSSVKVSCKASGGTFSRYWIEWVRQAPGQGLEWMGEILPGSGVTFENEKFKGRVTITADESTSTAYMELSSLRSEDTAVYYCARKGRYYAMDYWGQGTLVTVSS VL: EIVLTQSPGTLSLSPGERATLSCRASQSIGTSIHWYQQKPGQAPRLLIYYASESVSGIPDRFSGSGSGTDFTLTISRLEPEDFAVYYCQQTYSWPATFGQGTKVEIK	–	–	–	–	> 100	0.011	–	1.1	6.6	0.00154	233000	7.5	–	–
